Experiments:
[1] = Biodistribution of 99mTc-AH114567 in tumoured mice
LNCaP tumour = test: Biodistribution/pHe modulation study; format: in vivo, mouse; conditions: 24 h p.i., bicarbonate per os 5 days, P=0.020, 95% CI 10%, 42%
[2] = 60 min p.i., i.v., mean±SD of 2 independent studies
PC-3 tumour = test: Biodistribution/pHe modulation study; format: in vivo, mouse; conditions: PC-3, 24 h p.i., bicarbonate per os 5 days; P=0.053; 95% CI 0%, 51%
[3] = Radiochemical purity of the preparation over time; format: physicochemical; conditions: measured ≈24 h p.i., preparation used for SPECT imaging
mice = test: Toxicity of pHe marker in mice; format: in vivo, mouse; conditions: 7 mmol/kg i.p.

Molecule	lung/blood uptake ratio at 4 h p.i. ([1]; 4 h p.i.)	lung/blood uptake ratio at 24 h p.i. ([1]; 24 h p.i.)	kidney uptake at 24 h p.i. ([1]; 24 h p.i., C57BL/6 mice) [% ID]	blood uptake at 24 h p.i. ([1]; 24 h p.i., all three models) [% ID/g]	lung/blood uptake ratio, initial ([1]; initially)	uptake in liver ([1]; over the first 24 h p.i., liver+gall bladder, LLC tumoured C57BL/6 mice) [% ID]	skin uptake ([1]; range over time points) [% ID]	uptake in bone ([1]; typically) [% ID]	tumour uptake ratio (uptake difference with bicarbonate relative to standard) (LNCaP tumour) [%]	integrated radio-HPLC signal of the parent compound in rat plasma [2] [%]	tumour uptake ratio (uptake difference with bicarbonate relative to standard) (PC-3 tumour) [%]	radiochemical purity (RCP) of the preparation [3] [%]	toxicity for mice (mice)
ACEQNPIY{WARYADWLFTTPLLLLDLALLV}DADEGTG [99mTc-AH114567]	≈ 2	ca. 1	~3	1 to 2	≈ 3	25 to 15	3 to 8	2 to 3	29	86±6	29	≥ 85	–
CCOP(=O)(OCC)C1(C)CCCN1 (stereo not shown)	–	–	–	–	–	–	–	–	–	–	–	–	toxic

Source: PMC3909815 (Molecular imaging and biology : MIB : the official …, 2012)
